Experimental data: patent US10907134B2, “Mutated genes for the catalytic protein of oplophorus luciferase and use thereof” (JNC CORPORATION, priority 2013, dated 2021)

Tests used:
CHO-K1 cells = assay: Luminescence activity of KAZ mutants expressed in animal culture cells with signal peptide of Gaussia luciferase for secretion; assay type: cell-based, Chinese hamster; settings: Table 5, pcDNA3-GLsp- vectors, CHO-K1, 48 hours, 0.5 μg coelenterazine
Protocol: Chinese hamster ovary cell line CHO-K1 was cultured in Ham's F-12 medium (manufactured by Wako Pure Chemical Industries, Ltd.) supplemented with 10% (v/v) fetal bovine serum (manufactured by Biowest Inc.). The CHO-K1 cells were plated in a 6-well plate in 1×10^5 cells/well/2 mL medium (n=2) and cultured in an incubator at 37° C. in 5% (v/v) CO2. After 24 hours, the purified recombinant plasmid was transfected to CHO-K1 cells using a FuGene HD transfection kit (manufactured by Promega Corp.), which was provided for subsequent experiment. Specifically, 1 μg of the recombinant plasmid pGL4.13 [Luc2/sv40], 0.1 μg of the internal standard vector and 3 μL of FuGene HD were added to 100 μL of the medium, which was allowed to stand at room temperature for 15 minutes. Subsequently, 100 μL of the DNA-FuGene complex was added to the cells in the 6 wells. After incubation for 48 hours, the culture medium was collected. On the other hand, the KAZ mutants expressed in the cells were washed 3 times with 3 mL of 1×PBS, then suspended in 1 mL of 1×PBS and disrupted on ice by ultrasonication, which was used as enzyme solutions of the cell-extracts of KAZ mutants.
A luminescence reaction was started by adding 5 μL of the culture media and cell extracts obtained in EXAMPLE 10 to 100 μL of 30 mM Tris-HCl (pH 7.6)-10 mM EDTA (manufactured by Wako Pure Chemical Industries, Ltd.) containing 0.5 μg of coelenterazine (manufactured by INC Corp.). The luminescence activity was determined using a luminometer (manufactured by Atto Inc.: AB2200) for 60 seconds, and the maximum intensity of luminescence (Imax) was defined as a percentage.
Culture media of the KAZ mutants with two amino acid substitutions and KAZ mutants with three amino acid substitutions and the enzyme solutions of the cell-extracts of KAZ mutants were prepared in the same manner as EXAMPLE 10.
In the resultant enzyme solutions and the enzyme solutions of the cell-extracts of KAZ mutants, luminescence activities were determined in the same manner as EXAMPLE 11.

[1] = Luminescence activity of ZZ-fused KAZ mutants in crude enzyme solutions; assay type: biochemical; settings: Table 4; ZZ-fused (pCold-ZZ-P-); 1 μL crude enzyme solution, 1 mM DTT; 1 μg coelenterazine
Protocol: To express the ZZ-fused KAZ mutants in E. coli, the recombinant plasmid prepared in EXAMPLE 6 was used. Crude enzyme solutions were prepared in the same manner as EXAMPLE 4 using the E. coli BL21 strain (Novagen, Madison, Wis.) as a host cell. The resultant crude enzyme solution, 5 μL, was subjected to SDS-PAGE analysis to confirm expression of the proteins (FIG. 2). In FIG. 2, M and 1 to 18 are the same as described in FIG. 1.
DTT was added to the crude enzyme solution obtained in EXAMPLE 7 at a final concentration of 1 mM and the mixture was allowed to stand in an ice water for more than 5 hours. A luminescence reaction was started by adding 1 μL of the crude enzyme solution to 100 μL of TE containing 1 μg of coelenterazine (manufactured by JNC Corp.). The luminescence activity was determined using a luminometer (manufactured by Atto Inc.: AB2200) for 60 seconds, and the maximum intensity of luminescence (Imax) was shown as relative luminescence activity.
To express the ZZ-fused KAZ mutants in E. coli, the recombinant plasmid constructed in EXAMPLE 16 and pCold-ZZ-P-V44I-KAZ, pCold-ZZ-P-A54I-KAZ, pCold-ZZ-P-Y138I-KAZ prepared in EXAMPLE 6 were used. Crude enzyme solutions were prepared in the same manner as EXAMPLE 7, using the E. coli BL21 strain (Novagen, Madison, Wis.) as a host cell. DTT was added to the crude enzyme solutions at a final concentration of 1 mM. The mixtures were allowed to stand over 5 hours on ice, and luminescence activities were then assayed. The luminescence activities were determined by the method described in EXAMPLE 8. Also, 5 μL of the resultant crude enzyme solutions were subjected to SDS-PAGE analysis to confirm protein expression (FIG. 4). In FIG. 4, M and 1 to 9 are as follows. M: molecular weight size markers; 1: ZZ-P-KAZ; 2: ZZ-P-KAZ-V44I; 3: ZZ-P-KAZ-A54I; 4: ZZ-P-KAZ-Y138I; 5: ZZ-P-KAZ-V44I-A54I; 6: ZZ-P-KAZ-V44I-Y138I; 7: ZZ-P-KAZ-A54I-Y138I; 8: ZZ-P-KAZ-V44I-A54I-Y138I; and 9: ZZ-P-dnKAZ.

[2] = Luminescence activity of KAZ mutants (pCold II, E. coli) in supernatant and precipitate of crude enzyme solution; assay type: biochemical; settings: Table 3, pCold II, E. coli BL21, 0.5 μg coelenterazine, 60 seconds
Protocol: In order to express the KAZ mutants in E. coli, the recombinant plasmid prepared in EXAMPLE 3 was used. The E. coli BL21 strain (Novagen, Madison, Wis.) was used as a host cell. The BL21 strain carrying the recombinant plasmid was incubated in 5 mL of Luria-Bertani medium (hereinafter designated as LB medium) containing ampicillin (50 μg/mL) at 37° C. for 18 hours. This seed culture, 0.1 mL, was inoculated to 10 mL of LB medium and incubated for 3 hours, followed by cooling in an ice-water bath for 1 hour. IPTG was added to the culture medium at a final concentration of 1 mM, followed by incubation at 15° C. for further 20 hours. After completion of the incubation, 1 mL of the cultured medium was harvested by centrifugation at 10,000 rpm for 2 minutes. The thus collected E. coli cells were suspended in 0.5 mL of 30 mM Tris-HCl (pH 7.6)-10 mM EDTA (manufactured by Wako Pure Chemical Industries, Ltd.) (hereinafter designated as TE). The E. coli cells were disrupted by sonication for 3 seconds using a Branson Model 250 Sonifier (Danbury, Conn.) to give a crude enzyme solution. After 0.5 mL of the crude enzyme solution was further centrifuged at 10,000 rpm for 2 minutes to separate the supernatant from the precipitate, the precipitate was suspended in 0.5 mL of TE. Then 20 μL each of the supernatant and precipitate were analyzed by SDS-PAGE to confirm the presence or absence of soluble and insoluble proteins. The results are shown in FIG. 1, wherein M and 1 to 17 denote: M: molecular weight size markers; 1: KAZ; 2 KAZ-A4E; 3: KAZ-Q11R; 4: KAZ-Q18L; 5: KAZ-L27V; 6: KAZ-A33N; 7: KAZ-K43R; 8: KAZ-V44I; 9: KAZ-A54I; 10: KAZ-F68D; 11: KAZ-L72Q; 12: KAZ-M75K; 13: KAZ-I90V; 14: KAZ-P115E; 15: KAZ-Q124K; 16: KAZ-Y138I; 17: KAZ-N166R and 18: dnKAZ.
A luminescence reaction was started by the addition of 5 μL each of the supernatant and precipitate obtained in EXAMPLE 4 to 100 μL of TE containing 0.5 μg of coelenterazine (manufactured by JNC Corp.). The luminescence activity was measured for 60 seconds using a luminometer (manufactured by Atto Corp.: AB2200) and expressed in terms of relative luminescence activity (Imax).
To express the KAZ mutants with two amino acid substitutions and three amino acid substitutions in E. coli using a pCold II vector, the recombinant plasmid constructed in EXAMPLE 13 and pCold-V44I-KAZ, pCold-A54I-KAZ, pCold-Y138I-KAZ prepared in EXAMPLE 3 were used. The supernatant and precipitate of each crude enzyme solution were prepared in the same manner as EXAMPLE 4, using the E. coli BL21 starin (Novagen, Madison, Wis.) as a host cell. The supernatant and precipitate, 20 μL each, were subjected to SDS-PAGE analysis to confirm the presence or absence of soluble proteins and insoluble proteins. In FIG. 3, M and 1 to 9 are as follows. M: molecular weight markers; 1: dnKAZ; 2: KAZ; 3: KAZ-V44I-A54I; 4: KAZ-V44I-Y138I; 5: KAZ-A54I-Y138I; 6: KAZ-V44I-A54I-Y138I; 7: KAZ-V44I; 8: KAZ-A54I; and 9: KAZ-Y138I.
The luminescence activities of 5 μL each of the supernatant and precipitate obtained in EXAMPLE 14 were determined in the same manner as EXAMPLE 5. The luminescence activity was assayed with a luminometer (manufactured by Atto Inc.: AB2200) for 60 seconds, and the maximum intensity of luminescence (Imax) was shown as relative luminescence activity.

B1: KAZ-A4E: KAZ with single amino acid substitution A4E (protein)
chain: FTLEDFVGDWQQTAGYNQDQVLEQGGLSSLFQALGVSVTPIQKVVLSGENGLKADIHVIIPYEGLSGFQMGLIEMIFKVVYPVDDHHFKIILHYGTLVIDGVTPNMIDYFGRPYPGIAVFDGKQITVTGTLWNGNKIYDERLINPDGSLLFRVTINGVTGWRLCENILA
CHO-K1 cells; 5 μL cell extracts
  Relative Luminescence Activity (Imax) (%) Cell Extracts: 0.1%
CHO-K1 cells; 5 μL culture medium
  Relative Luminescence Activity (Imax) (%) Culture Medium: less than 0.01%
[1]
  Relative Luminescence Activity (Imax): 0.5
[2]; 5 μL precipitate
  Relative Luminescence Activity (Imax) Precipitate: 0.2
[2]; 5 μL supernatant
  Relative Luminescence Activity (Imax) Supernatant: 1.5
